Here are results for one compound from publication PMC9856709 (Cancers, 2023).

Structures are written as SMILES. Where two headings read alike, the source gives them in different places. Numbered stars: 1 amine (or outer) side, 2 acyl side, 3 side chain; on linkers, the order of the positions; unused ones are H or OH. Square brackets hold non-standard residues; d marks the D form. Peptide text beside a SMILES is read from it. * marks the point of attachment. NOTA = O=C(O)CN1CCN(CC(=O)O)CCN(CC(=O)*)CC1; γGlu = O=C(O)[C@H](CCC(=O)[*:2])N[*:1]; Sta = CC(C)C[C@H](N)[C@@H](O)CC(=O)O; AEEA = NCCOCCOCC(=O)O; Aoc = NCCCCCCCC(=O)O; CO = O=C([*:1])[*:2]

Data set [1] concerns PC3-pip cell line. In words: Cellular processing in PC3-pip cells. Format: cell-based, human. The following applies: 1 nM, 37 °C. The procedure:
In vitro experiments were carried out using the PSMA- and GRPR-expressing human prostate carcinoma PC3-pip cell line (obtained from Prof. Martin Pomper, The Johns Hopkins University, Baltimore, MD, USA). Cells (5–7 × 10^5 cells/vial) were seeded 24–48 h before the experiments. All experiments were performed in triplicate.
At selected time points (1 and 3 h), cells were collected, and the total cell-associated activity was measured using an automated gamma counter. At 3 h, the membrane-bound and internalised fractions were collected separately using the acid and base method described earlier.

A short description of data set [2]: In vivo binding specificity (blocked groups) in PC3-pip xenografted mice. Also on record: species or system BALB/c nu/nu mice. As to conditions: BALB/c nu/nu, mouse, iv, total radioactivity, 1 h pi, 40 pmol iv, average ± SD. The procedure: (§1) Ex vivo experiments and in vivo imaging were carried out using BALB/c nu/nu mice bearing PC3-pip xenografts. All studies were performed according to the guidelines of the Declaration of Helsinki and approved by the Ethics Committee for Animal Research in Uppsala, Sweden (5.8.18-00473/2021. Approved on 26 February 2021).
(§2) There were 4 mice in each group. At 1 and 3 h pi, mice were sacrificed after an intraperitoneal injection of a Ketalar–Rompun solution (20 μL/g body weight) consisting of Ketalar (10 mg/mL) and Rompun (1 mg/mL), followed by heart puncture.

The subject of data set [3] is PSMA and GRPR. Described as above. The following applies: 1 h pi. Also on record: species or system BALB/c nu/nu mice. The procedure: as §1, §2
A short description of data set [4]: Stability in PBS and EDTA challenge. As to conditions: 1 h, ITLC. Format: physicochemical.
Procedure: After 1 h, samples were taken from all solutions and analysed by ITLC.
[5] abbreviates: 3 h, acid and base method, triplicate.

For the compound `CC(C)C[C@H](NC(=O)C[C@H](O)[C@H](CC(C)C)NC(=O)[C@H](Cc1c[nH]cn1)NC(=O)CNC(=O)[C@@H](NC(=O)[C@H](C)NC(=O)[C@H](Cc1c[nH]c2ccccc12)NC(=O)[C@H](CCC(N)=O)NC(=O)[C@@H](Cc1ccccc1)NC(=O)COCCOCCNC(=O)[C@H](CCCCNC(=O)CN1CCN(CC(=O)O)CCN(CC(=O)O)CC1)NC(=O)[C@H](Cc1ccccc1)NC(=O)CCCCCCCNC(=O)CC[C@H](NC(=O)N[C@@H](CCC(=O)O)C(=O)O)C(=O)O)C(C)C)C(N)=O` [[^68Ga]Ga-BQ7812, metal not drawn] ({Glu-CO-γGlu-Aoc}-FK(NOTA)[AEEA][dF]QWAVGH[Sta]L-NH2), in data set [1] (1 and 3 h), the “Binding to the targets in cellular processing” value is listed as “rapid binding”. Moreover, the “Internalised fraction of total cell-associated activity” value in data set [1] (setting [5]) is reported as “approximately 20%”. Besides, the “Membrane-bound fraction of total cell-associated activity” value in data set [1] (setting [5]) is approximately 80%. Moreover, the tissue uptake at 1 h in data set [2] (blood, GRPR blocked (co-injected NOTA-PEG2-RM26 5 nmol), read-out: Uptake (%IA/g), Blood) stood at 0.69 ± 0.28 %ID/g; in data set [2] (blood, PSMA blocked (co-injected PSMA-11 5 nmol), read-out: Uptake (%IA/g), Blood), 0.8 ± 0.24 %ID/g; in data set [2] (kidneys, GRPR blocked (co-injected NOTA-PEG2-RM26 5 nmol), read-out: Uptake (%IA/g), Kidneys) it was 34.5 ± 8.74 %ID/g; in data set [2] (kidneys, PSMA blocked (co-injected PSMA-11 5 nmol), read-out: Uptake (%IA/g), Kidneys), 13.8 ± 0.45 %ID/g; in data set [2] (pancreas, GRPR blocked (co-injected NOTA-PEG2-RM26 5 nmol), read-out: Uptake (%IA/g), Pancreas), 0.76 ± 0.14 %ID/g; in data set [2] (pancreas, PSMA blocked (co-injected PSMA-11 5 nmol), read-out: Uptake (%IA/g), Pancreas) it was 6.33 ± 1.86 %ID/g. Further, the tissue uptake at 1 h in data set [2] (salivary glands, GRPR blocked (co-injected NOTA-PEG2-RM26 5 nmol), read-out: Uptake (%IA/g), Salivary Glands) was determined as 0.29 ± 0.07 %ID/g; in data set [2] (salivary glands, PSMA blocked (co-injected PSMA-11 5 nmol), read-out: Uptake (%IA/g), Salivary Glands), 0.38 ± 0.12 %ID/g; in data set [2] (tumour (PC3-pip xenograft), GRPR blocked (co-injected NOTA-PEG2-RM26 5 nmol), read-out: Uptake (%IA/g), Tumour (PC3-pip)), 5.73 ± 0.72 %ID/g; in data set [2] (tumour (PC3-pip xenograft), PSMA blocked (co-injected PSMA-11 5 nmol), read-out: Uptake (%IA/g), Tumour (PC3-pip)), 8.26 ± 1.03 %ID/g. The “Uptake in tumour and pancreas, GRPR-blocked group compared with non-blocked group” value in data set [3] (co-injected NOTA-PEG2-RM26 5 nmol) is listed as “statistically significantly lower”. Moreover, in data set [3] (co-injected PSMA-11 5 nmol), the “Uptake in tumour and kidneys, PSMA-blocked group compared with non-blocked group” value is “statistically significantly lower”. Moreover, the “Release of free gallium-68 under EDTA challenge” value in data set [4] (1000-fold molar excess EDTA) is reported as “minor release”. In data set [4] (PBS, room temperature), the “Release of free gallium-68 in PBS” value is listed as “minor release”.
